Here are results for 26 substances from patent US20200371101A1.

Some results are limits rather than exact numbers.

For assay [1], the target named is His-tagged IDO1 human recombinant protein (71182, BPS Biosciences) (human) (UniProt P14902). In words: ELISA: biotin-PEG3 macrocycle on NeutrAvidin plate, His-tagged human IDO1 titrated, AP-conjugated anti-6XHis antibody, fluorescence. Background: ELISA stands for enzyme-linked immunosorbent assay.
The target in assay [2] is murine IDO1 protein (mouse) (UniProt P28776). In words: ELISA, immobilized macrocycle, mouse IDO1 titrated.
The target of assay [3] is His-tagged IDO1 human recombinant protein (71182, BPS Biosciences) (human) (UniProt P14902). As to the kind of experiment: cell-based or functional assay.
Assay [4] has the same target. In words: sandwich ELISA: biotinylated macrocycle on NeutrAvidin plate, His-tagged IDO1 titrated, anti-6XHis-AP detection.
The target is the same in assay [5]. As to the kind of experiment: ELISA: biotinylated peptide on NeutrAvidin plate, 6xHis-tagged human IDO1 titrated.
The target is the same in assay [6]. In words: ELISA, immobilized macrocycle, human IDO1 titrated.
Assay [7] has the same target. As to the kind of experiment: binding analysis, method not named.
Assay [8] has the same target. In words: sandwich ELISA: 200 nM biotinylated macrocycle immobilized on NeutrAvidin plate, His-tagged IDO1 titrated, anti-6XHis-AP detection.

Sequence of murine IDO1 protein (mouse) (P28776 2-406 limits assumed): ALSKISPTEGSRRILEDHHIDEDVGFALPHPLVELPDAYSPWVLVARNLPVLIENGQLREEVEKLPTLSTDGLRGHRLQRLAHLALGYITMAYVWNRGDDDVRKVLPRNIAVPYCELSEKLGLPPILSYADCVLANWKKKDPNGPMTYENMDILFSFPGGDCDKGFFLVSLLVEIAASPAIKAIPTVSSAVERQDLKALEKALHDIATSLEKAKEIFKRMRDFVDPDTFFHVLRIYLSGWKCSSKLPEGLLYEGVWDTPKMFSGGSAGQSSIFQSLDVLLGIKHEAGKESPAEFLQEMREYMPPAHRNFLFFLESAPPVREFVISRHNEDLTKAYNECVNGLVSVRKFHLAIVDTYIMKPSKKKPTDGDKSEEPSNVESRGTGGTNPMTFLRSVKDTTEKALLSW
Sequence of His-tagged IDO1 human recombinant protein (71182, BPS Biosciences) (human) (P14902 2-403 limits assumed): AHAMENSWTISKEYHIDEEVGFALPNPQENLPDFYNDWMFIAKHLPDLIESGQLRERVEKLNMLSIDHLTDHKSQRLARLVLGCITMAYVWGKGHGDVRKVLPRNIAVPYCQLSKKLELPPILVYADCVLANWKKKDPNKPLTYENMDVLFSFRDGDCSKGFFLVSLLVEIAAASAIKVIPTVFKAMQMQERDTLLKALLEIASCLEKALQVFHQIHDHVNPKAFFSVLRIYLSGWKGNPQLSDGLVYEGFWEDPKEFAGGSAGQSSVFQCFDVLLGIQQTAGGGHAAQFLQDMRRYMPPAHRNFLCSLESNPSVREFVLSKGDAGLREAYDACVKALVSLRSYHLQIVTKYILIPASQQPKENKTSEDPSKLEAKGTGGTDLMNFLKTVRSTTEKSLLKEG

Regarding Biotin-PEG3-Cy(arf(Me-Trp)s) (peptide), the EC50 – broadly, the midpoint of the concentration-response curve – in assay [1] amounted to 79 nM.

For the substance Biotin-PEG3-Cy(frf(Me-Trp)) (peptide), the EC50 in assay [1] amounted to 12 nM.

For Biotin-PEG3-Cy(frf(Me-Trp)a) (peptide), the EC50 in assay [1] was found to be 57 nM.

Take “Biotin-PEG3-Cy(lf(Me-Trp)(F-Phe)) (peptide)”: the EC50 in assay [1] came out at 39 nM.

Regarding Biotin-PEG3-Cy(saww(F-Phe)) (peptide), in assay [1], the EC50 was 42 nM.

With Biotin-PEG3-Cy(spaw(F-Phe)) (peptide), the EC50 in assay [1] is 111 nM.

For the substance Biotin-PEG3-Cy(sww(F-Phe)) (peptide), in assay [1], the EC50 was found to be 70 nM.

Regarding alf(Me-Trp)(F-Phe) (peptide), the EC50 in assay [1] was determined as 50 nM.

As to apww(F-Phe) (peptide), in assay [1], the EC50 worked out at 106 nM.

Consider biotin-PEG3-Cy(frf(Me-Trp)s) (peptide), for which the EC50 was determined as 36 nM in assay [2], 20 nM in assay [4], 20 nM in assay [5] and 18 nM in assay [6]. Further, in assay [3], the IC50, IDO1 Fluorogenic Inhibitor Screening Assay (enzyme inhibition) was above 40000 nM.

In the case of “biotin-PEG3-Cy(nlf(Me-Trp)(F-Phe)) (peptide)”, the EC50 in assay [2] came to 89 nM; in assay [4], 20 nM; in assay [7] it was 44 nM; in assay [6], 19 nM.

For biotin-PEG3-Cy(nlw(Me-Trp)r) (peptide), the EC50 in assay [2] is 48 nM; in assay [4], 43 nM; in assay [6], 51 nM.

Consider biotin-PEG3-Cy(nsfr(Me-Trp)) (peptide), for which the EC50 in assay [4] and in assay [5] was 124 nM throughout.

As for biotin-PEG3-Cy(nsh(F-Phe)r) (peptide), the 50% effective concentration (EC50) in assay [4] stood at 68 nM.

For the substance biotin-PEG3-Cy(rys(Me-Trp)r) (peptide), the values for the EC50 in assay [2], in assay [8] and in assay [6] were 17 nM, 81 nM and 91 nM, respectively. In assay [3], the IC50, IDO1 Fluorogenic Inhibitor Screening Assay (enzyme inhibition) is above 40000 nM.

In the case of biotin-PEG3-Cy(spww(F-Phe)) (peptide), the EC50 in assay [2] was 44 nM; in assay [4], 65 nM; in assay [6], 85 nM. Also, in assay [3], the IC50, IDO1 Fluorogenic Inhibitor Screening Assay (enzyme inhibition) is above 40000 nM.

For fra(Me-Trp)s (peptide), the EC50 in assay [1] stood at 107 nM.

Take n-f(Me-Trp)(F-Phe) (peptide): the EC50 in assay [1] came to 128 nM.

naf(Me-Trp)(F-Phe) (peptide): in assay [1], the EC50 worked out at 82 nM.

Take nla(Me-Trp)(F-Phe) (peptide): in assay [1], the EC50 came to 116 nM.

For nlf(Me-Trp) (peptide), the EC50 in assay [1] is 45 nM.

On to nlf(Me-Trp)a (peptide), for which the EC50 in assay [1] is 104 nM.

With nlfa(F-Phe) (peptide), the EC50 in assay [1] worked out at 69 nM.

As to pww(F-Phe) (peptide), in assay [1], the EC50 turned out to be 104 nM.

For spww (peptide), the EC50 in assay [1] came to 144 nM.

As to spwwa (peptide), the EC50 in assay [1] was determined as 111 nM.
